Assays:
[1] = test system: ATDC5 cells; assay: Chondrocyte differentiation marker mRNA in ATDC5 cells, RT-PCR and real-time PCR; type: cell-based; settings: sLZIP 0.1 μg to 0.5 μg, in a reaction with insulin
Protocol: According to instructions of the manufacturer, a TRIzol reagent (Invitrogen, Carlsbad, Calif.) was added to directly lyse cells in a culture dish. Accupower RT PreMix (BioNeer, Daejeon, Korea) was used to synthesize cDNA from 2 μg of total RNA. A reaction was performed for 60 minutes at 42° C. and for 5 minutes at 94° C. PCR amplification was performed using oligomers listed in Table 2 and a Hipi PCR Mix Kit (ELPIS). As an internal control group, GAPDH was amplified. A PCR product was subjected to electrophoresis in 1-2% (w/v) agarose gel containing 0.5 μg/mL ethidium bromide. A size of the PCR product was measured by comparing it with 1 kb DNA ladder marker (Invitrogen). An intensity of bands amplified according to RT-PCR was analyzed using MultiImage™ Light Cabinet (version 5.5, Alpha Innotech Corp., San Leandro, Calif.).
Real-time PCR was performed in LightCycler 480 using a SYBR Green Master Mix (Roche, Mannheim, Germany). β-actin was used as an internal control group. A target gene expression level rate with respect to β-actin was calculated using CT method. A Ct value is defined as a PCR cycle number at which a fluorescence signal reaches a fixed target threshold. Experiments were technically repeated three times for each experiment. […]

[2] = biological target: T1, NCoR1 (Homo sapiens, UniProt O75376); assay: Immunoprecipitation of sLZIP with anti-NCoR1 antibodies in 293T cells; type: binding; settings: 10 nM RZD for 24 hours
T1 construct: endogenous in cells; host or cells: 293T
T1 sequence (O75376 whole entry): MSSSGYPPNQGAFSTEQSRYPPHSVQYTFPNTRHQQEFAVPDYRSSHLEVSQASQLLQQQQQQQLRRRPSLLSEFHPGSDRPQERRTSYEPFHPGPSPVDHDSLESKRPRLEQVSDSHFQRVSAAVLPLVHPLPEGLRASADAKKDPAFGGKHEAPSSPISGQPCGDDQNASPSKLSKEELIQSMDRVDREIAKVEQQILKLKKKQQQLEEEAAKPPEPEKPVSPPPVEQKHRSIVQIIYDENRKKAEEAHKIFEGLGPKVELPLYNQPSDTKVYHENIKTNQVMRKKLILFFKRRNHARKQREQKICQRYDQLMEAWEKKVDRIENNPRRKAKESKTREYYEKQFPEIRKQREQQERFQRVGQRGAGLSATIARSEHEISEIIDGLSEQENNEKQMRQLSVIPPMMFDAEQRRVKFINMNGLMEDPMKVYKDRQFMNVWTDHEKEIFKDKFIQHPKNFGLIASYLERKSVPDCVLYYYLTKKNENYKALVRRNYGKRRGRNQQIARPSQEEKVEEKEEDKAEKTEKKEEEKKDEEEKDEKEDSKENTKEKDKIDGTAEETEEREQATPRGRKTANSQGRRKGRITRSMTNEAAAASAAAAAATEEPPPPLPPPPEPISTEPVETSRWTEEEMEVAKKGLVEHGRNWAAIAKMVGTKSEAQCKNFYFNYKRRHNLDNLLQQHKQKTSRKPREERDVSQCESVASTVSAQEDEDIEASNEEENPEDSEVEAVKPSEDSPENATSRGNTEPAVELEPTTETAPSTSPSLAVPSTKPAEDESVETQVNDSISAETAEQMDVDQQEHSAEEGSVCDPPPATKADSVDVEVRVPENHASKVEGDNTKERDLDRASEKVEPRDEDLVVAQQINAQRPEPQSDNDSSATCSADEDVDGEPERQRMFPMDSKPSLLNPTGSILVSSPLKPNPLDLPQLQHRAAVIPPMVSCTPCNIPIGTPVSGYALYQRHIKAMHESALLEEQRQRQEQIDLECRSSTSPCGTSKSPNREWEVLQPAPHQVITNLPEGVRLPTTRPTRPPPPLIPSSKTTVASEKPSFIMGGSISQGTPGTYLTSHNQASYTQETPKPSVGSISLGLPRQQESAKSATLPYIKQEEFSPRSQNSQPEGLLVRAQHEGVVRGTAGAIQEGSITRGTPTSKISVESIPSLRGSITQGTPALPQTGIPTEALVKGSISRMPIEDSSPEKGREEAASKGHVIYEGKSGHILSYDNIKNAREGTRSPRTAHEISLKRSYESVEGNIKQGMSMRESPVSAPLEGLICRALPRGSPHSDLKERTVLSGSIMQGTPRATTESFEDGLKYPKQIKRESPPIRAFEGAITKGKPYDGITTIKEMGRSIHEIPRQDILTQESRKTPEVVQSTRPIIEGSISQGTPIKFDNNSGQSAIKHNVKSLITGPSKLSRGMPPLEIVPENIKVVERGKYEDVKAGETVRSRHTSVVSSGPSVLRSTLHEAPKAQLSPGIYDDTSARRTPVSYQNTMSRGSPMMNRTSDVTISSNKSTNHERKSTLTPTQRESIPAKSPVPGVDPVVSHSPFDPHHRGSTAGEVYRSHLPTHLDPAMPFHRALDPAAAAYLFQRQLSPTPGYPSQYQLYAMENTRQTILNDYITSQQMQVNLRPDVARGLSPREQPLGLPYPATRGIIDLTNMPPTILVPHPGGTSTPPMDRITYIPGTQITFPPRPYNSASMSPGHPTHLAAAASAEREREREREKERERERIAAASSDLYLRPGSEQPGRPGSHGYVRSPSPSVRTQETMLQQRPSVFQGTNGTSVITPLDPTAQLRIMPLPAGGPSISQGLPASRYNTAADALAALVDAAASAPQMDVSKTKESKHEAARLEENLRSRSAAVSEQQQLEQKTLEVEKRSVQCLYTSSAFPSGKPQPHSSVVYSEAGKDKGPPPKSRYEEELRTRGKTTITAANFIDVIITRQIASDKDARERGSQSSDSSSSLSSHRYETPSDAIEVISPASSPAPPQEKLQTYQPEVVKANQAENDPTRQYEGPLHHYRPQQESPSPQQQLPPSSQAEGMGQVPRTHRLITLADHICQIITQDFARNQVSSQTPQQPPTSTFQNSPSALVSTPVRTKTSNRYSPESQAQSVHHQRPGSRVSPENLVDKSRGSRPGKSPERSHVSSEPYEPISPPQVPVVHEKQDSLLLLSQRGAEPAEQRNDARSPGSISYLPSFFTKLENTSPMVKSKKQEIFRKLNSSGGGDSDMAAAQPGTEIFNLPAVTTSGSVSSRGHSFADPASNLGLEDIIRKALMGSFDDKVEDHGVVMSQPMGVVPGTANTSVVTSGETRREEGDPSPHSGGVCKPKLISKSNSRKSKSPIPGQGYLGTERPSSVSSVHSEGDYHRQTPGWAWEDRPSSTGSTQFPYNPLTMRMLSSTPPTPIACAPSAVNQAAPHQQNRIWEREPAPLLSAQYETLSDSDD
Protocol: 293T cells were obtained and washed with cold PBS. The cells were re-suspended in an IP lysis buffer [25 mM of Tris-HCl (pH 7.4), 150 mM of NaCl, 1 mM of EDTA, 1% NP-40 and 5% glycerol, and a protease inhibitor]. A suspension was centrifuged at 16,000×g for 20 minutes at 4° C. Supernatants were collected and incubated with 0.5 μg of appropriate antibodies and 25 μl of protein A/G-agarose or a GST Sepharose 4B bead for 24 hours at 4° C. A protein complex was centrifuged at 1,000×g with a cold IP lysis buffer for 1 minute and washed five times. The final pellet was re-suspended in 50 μl of an SDS-sample buffer containing 5% β-mercaptoethanol and heated for 10 minutes at 100° C. A protein sample was isolated in SDS-PAGE (8 to 10%) and transferred to nitrocellulose membranes. Co-precipitated proteins were detected according to western blotting using specific antibodies.
For this purpose, 293T cells were transfected with GST-PPARγ2 and Flag-sLZIP and were treated or not treated with 10 nM of RZD for 24 hours. […] A protein complex was analyzed in SDS-PAGE, and immunoblotted with anti-GST and anti-Flag antibodies. […] The cell lysates were GST pull-down analyzed (FIG. 5C). […] The cell lysates were GST pull-down analyzed (FIG. 5D). […] A protein complex was analyzed in SDS-PAGE, and then immunoblotted with anti-NCoR1 and anti-Flag antibodies (FIG. 5E). […]

B1: sLZIP: human small leucine-zipper protein, isoform of LZIP, 354 amino acids, no transmembrane domain, GenBank FJ263669, SEQ ID NO: 1 (protein, listed as Homo sapiens)
chain: MELELDAGDQDLLAFLLEESGDLGTAPDEAVRAPLDWALPLSEVPSDWEVDDLLCSLLSPPASLNILSSSNPCLVHHDHTYSLPRETVSMDLESESCRKEGTQMTPQHMEELAEQEIARLVLTDEEKSLLEKEGLILPETLPLTKTEEQILKRVRRKIRNKRSAQESRRKKKVYVGGLESRVLKYTAQNMELQNKVQLLEEQNLSLLDQLRKLQAMVIEISNKTSSSSMYSSDTRGSLPAEHGVLSRQLRALPSEDPYQLELPALQSEVPKDSTHQWLDGSDCVLQAPGNTSCLLHYMPQAPSAEPPLEWPFPDLFSEPLCRGPILPLQANLTRKGGWLPTGSPSVILQDRYSG
expression of chondrocyte differentiation marker genes (Sox9, ColIIIA1) [1]: no influence
interaction with NCoR1 [2]: slightly dissociated from sLZIP

Reference: patent US10456446B2, “Use of human small leucine zipper protein in osteogenesis procedure” (Korea University Research and Business Foundation, priority 2013, dated 2019)
